Molecular target: the molecule itself
Test: SEC

B1: EncM (as used for size exclusion chromatography) (enzyme, Streptomyces maritimus, UniProt Q9KHK2 1-464, looked up)
chain: MQFPQLDPATLAAFSAAFRGELIWPSDADYDEARRIWNGTIDRRPALIARCTSTPDVVAAVSFARKSGLLVAVRGGGHSMAGHSVCDGGIVIDLSLMNSIKVSRRLRRARAQGGCLLGAFDTATQAHMLATPAGVVSHTGLGGLVLGGGFGWLSRKYGLSIDNLTSVEIVTADGGVLTASDTENPDLFWAVRGGGGNFGVVTAFEFDLHRVGPVRFASTYYSLDEGPQVIRAWRDHMATAPDELTWALYLRLAPPLPELPADMHGKPVICAMSCWIGDPHEGERQLESILHAGKPHGLTKATLPYRALQAYSFPGAVVPDRIYTKSGYLNELSDEATDTVLEHAADIASPFTQLELLYLGGAVARVPDDATAYPNRQSPFVTNLAAAWMDPTEDARHTAWAREGYRALAGHLSGGYVNFMNPGEADRTREAYGAAKFERLQGVKAKYDPTNLFRLNQNIPPSSP
modifications: FAD covalently linked to His78 via the C8-methyl of the isoalloxazine ring
stoichiometry N: 2

Source: publication PMC3844076 (Nature, 2013)
